The target in experiment [1] is T1, Soluble EBV gH/gL complex (poly-histidine tagged) (Epstein Barr Virus, UniProt P03231 19-679; P03212 24-137).
T1 construct: also called gH/gL Avi-His probe
The experiment in a line: Biolayer interferometry (Octet), His-tagged gH/gL on HIS1K biosensors, Fab dilution series (top curve labelled 5.00E-08), 300 s association, 900 s dissociation, 1:1 global fit. For orientation: BLI is a label-free optical method that tracks binding on a fibre tip over time.

The target of experiment [2] is T2, Soluble EBV gH/gL/gp42 complex (HIS-tagged) (Epstein Barr Virus, UniProt P03231 19-679; P03212 24-137; P03205 33-223). As to the kind of experiment: Biolayer interferometry (Octet), His-tagged gH/gL/gp42 on HIS1K biosensors, Fab dilution series (top curve labelled 1.00E-07), 300 s association, 900 s dissociation, 1:1 global fit.
Experiment [3] addresses T2, Soluble EBV gH/gL/gp42 complex …. The experiment in a line: Biolayer interferometry (Octet), His-tagged gH/gL/gp42 on HIS1K biosensors, Fab dilution series (top curve labelled 2.50E-08), 300 s association, 900 s dissociation, 1:1 global fit.
Experiment [4] concerns the target T1, Soluble EBV gH/gL complex …. The experiment in a line: Biolayer interferometry (Octet), His-tagged gH/gL on HIS1K biosensors, Fab dilution series (top curve labelled 2.50E-08), 1:1 global fit; same panel as FIG. 1C.
Experiment [5] has the same target. As to the kind of experiment: Biolayer interferometry (Octet), His-tagged gH/gL on HIS1K biosensors, Fab dilution series (top curve labelled 2.50E-08), 300 s association, 900 s dissociation, 1:1 global fit.
For experiment [6] the target is unchanged. As to the kind of experiment: BLI kinetics, KD on gH/gL against KD on gH/gL/gp42.
For experiment [7] the target is unchanged. As to the kind of experiment: BLI (Octet), His-captured soluble gH/gL on HIS1K biosensor, Fab in solution, 1:1 global fit; target gH/gL without gp42.
For experiment [8], the target named is T2, Soluble EBV gH/gL/gp42 complex …. The experiment in a line: Biolayer interferometry (Octet), His-tagged gH/gL/gp42 on HIS1K biosensors, Fab dilution series (top curve labelled 2.50E-08), 1:1 global fit; same panel as FIG. 1C.
Experiment [9] has the same target. The experiment in a line: BLI (Octet), His-captured soluble gH/gL/gp42 on HIS1K biosensor, Fab in solution, 1:1 global fit; target gH/gL/gp42 (gp42 present).
Experiment [10] has the same target. As to the kind of experiment: Biolayer interferometry (Octet), His-tagged gH/gL/gp42 on HIS1K biosensors, Fab dilution series (top curve labelled 5.00E-08), 300 s association, 900 s dissociation, 1:1 global fit.
Experiment [11] addresses T1, Soluble EBV gH/gL complex …. As to the kind of experiment: Biolayer interferometry (Octet), His-tagged gH/gL on HIS1K biosensors, Fab dilution series (top curve labelled 2.50E-08), 300 s association, 900 s dissociation, 1:1 global fit. The source holds these as a separate data set.

From patent US20210171610A1 (US Dept. of Health and Human Services, published 2021) come the findings set out here.

T1 sequence (P03231 19-679 limits assumed, chain 1 of 2): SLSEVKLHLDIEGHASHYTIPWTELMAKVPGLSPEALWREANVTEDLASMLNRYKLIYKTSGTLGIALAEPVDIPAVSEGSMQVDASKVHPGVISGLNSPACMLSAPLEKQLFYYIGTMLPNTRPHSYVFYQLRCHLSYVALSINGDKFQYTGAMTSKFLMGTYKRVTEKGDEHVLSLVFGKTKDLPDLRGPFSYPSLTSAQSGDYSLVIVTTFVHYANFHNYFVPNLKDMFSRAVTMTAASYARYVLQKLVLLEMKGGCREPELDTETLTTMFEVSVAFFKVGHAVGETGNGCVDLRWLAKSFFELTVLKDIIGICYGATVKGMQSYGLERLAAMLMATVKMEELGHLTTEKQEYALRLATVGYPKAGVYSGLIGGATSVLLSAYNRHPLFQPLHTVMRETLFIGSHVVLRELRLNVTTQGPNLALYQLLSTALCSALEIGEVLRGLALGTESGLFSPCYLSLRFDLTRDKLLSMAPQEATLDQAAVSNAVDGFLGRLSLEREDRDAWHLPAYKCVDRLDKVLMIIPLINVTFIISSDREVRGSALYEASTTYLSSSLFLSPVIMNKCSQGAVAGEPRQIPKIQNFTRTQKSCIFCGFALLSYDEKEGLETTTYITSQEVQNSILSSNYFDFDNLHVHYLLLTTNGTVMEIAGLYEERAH
T1 sequence (P03212 24-137 limits assumed, chain 2 of 2): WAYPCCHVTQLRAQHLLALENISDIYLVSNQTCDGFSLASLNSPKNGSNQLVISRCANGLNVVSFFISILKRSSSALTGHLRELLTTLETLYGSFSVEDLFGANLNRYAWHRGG
T2 sequence (P03231 19-679 limits assumed, chain 1 of 3): as the sequence (P03231 19-679 limits assumed, chain 1 of 2) above
T2 sequence (P03212 24-137 limits assumed, chain 2 of 3): as the sequence (P03212 24-137 limits assumed, chain 2 of 2) above
T2 sequence (P03205 33-223 limits assumed, chain 3 of 3): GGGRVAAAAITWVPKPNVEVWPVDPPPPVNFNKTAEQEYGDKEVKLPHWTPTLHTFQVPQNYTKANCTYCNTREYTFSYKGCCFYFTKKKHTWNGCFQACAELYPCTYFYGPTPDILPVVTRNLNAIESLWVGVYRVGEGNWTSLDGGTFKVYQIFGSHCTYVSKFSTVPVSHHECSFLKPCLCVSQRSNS

B1: Fab fragment of antibody 769C2 (Fab, V domains shown)
VH: EVQLVESGGGLVKPGGSLRLSCAASGFTFSTYAMDWVRQAPGKGLEWVSLISSRSSNIYYSDSVKGRFTISRDNAKNSLFLQMNSLRAEDTAVYYCAREAGGFHSHFDMWGQGTLVTVSS
VL: QSVLTQPASVSGSLGQSVTISCTGTSSDVGGYDYVSWYQQHPGKAPKLMIFEVNNRPSGVSTRFSGSKSGNTASLTISGLQAEDEADYYCNSYSTTTTWVFGGGTSLT
notes: also called 769C2 Fab
The Kd is the concentration at which binding is half-saturated. A higher Kd goes with lower affinity. By koff is commonly meant the first-order rate constant of dissociation. The low end stands for slow dissociation, the high end for fast dissociation. By kon is commonly meant the rate constant with which the complex forms. Low values mean slower complex formation, high ones faster complex formation. In experiment [1], B1 gave a Kd of 1.16 nM, a koff of 0.000292 s⁻¹ and a kon of 252000 M⁻¹ s⁻¹. In experiment [2], this molecule returned a Kd of 2.05 nM, a koff of 0.000425 s⁻¹ and a kon of 207000 M⁻¹ s⁻¹.

B2: Fab fragment of 769B10 (Fab, V domains shown)
VH: EVQLVESGGGIVQPGGSLRVSCAASGFSLSDHYMDWVRQAPGRGLEWVGRSRNKENSFTTEFAASVRRRFTISRDDSNSLLHLQMNNLKSEDTAVYFCARVGYYDLWSGYSGNWYIDVWGRGTLVIVSS
VL: DIQMTQSPSSLSASLGDSVTITCRASQTMSNFLNWYQQKPGKAPKFLIYAASRLQSGVPSRFSGSGSGTQFTLTISNLQPEDFATYYCQQSFIFPYTFGGGTKVEVE
notes: also called 769B10 Fab; B10 Fab
Consider B2, for which the koff came to 2.58e-05 s⁻¹ in [3], 1.51e-05 s⁻¹ in experiment [4], 1.51e-05 s⁻¹ in [5] and 2.58e-05 s⁻¹ in experiment [8]. The kon is 564000 M⁻¹ s⁻¹ in experiment [3], 490000 M⁻¹ s⁻¹ in experiment [4], 490000 M⁻¹ s⁻¹ in [5] and 564000 M⁻¹ s⁻¹ in [8]. The “fold stronger affinity than for gH/gL/gp42” value in experiment [6] is 10 fold. Further, the Kd in [7] worked out at 0.0307 nM; in experiment [9], 0.458 nM.

B3: Fab fragment of antibody 770F7 (Fab, V domains shown)
VH: QVQFQQWGAGLLKPSETLSLTCGVYGGSLSGYYWSWIRQTPGKGLEWIGEINHTGTTNYNPSLKSRVTMSVDTSKNQFSLKMSSLTAADTALYYCAREGAPRWALKRPSNWFDPWGQGTLVTVSS
VL: EIVLTQSPVSLSLSPGERATLSCRASQSISSTYLAWYQQIPGQAPRLLIYGASSRAAGIPDRFSGGGSGTDFTLTISRLEPEDFAVYYCQQYGSSPRSFGQGTKLEIK
notes: also called 770F7 Fab
In experiment [10], B3 came in with a Kd of 0.207 nM, a koff of 0.000128 s⁻¹ and a kon of 619000 M⁻¹ s⁻¹. In experiment [11], the Kd came out at 0.317 nM, the koff amounted to 0.000165 s⁻¹ and the kon turned out to be 520000 M⁻¹ s⁻¹.
